Patent US10464978B2, “Peptides and combination of peptides for use in immunotherapy against ovarian cancer and other cancers” (immatics biotechnologies GmbH, priority 2015, dated 2019)

Target: HLA-A*02:01 (Homo sapiens, UniProt P04439, D140Y/D185E/D98H/E176V/E277Q/G131W/G231S/I119V/I121R/I166T/I218V/L300P/L318F/N151K/N90K/P208A/P217A/Q86G/Q94H/R138H/R169H/T345S)
Experiment: MHC binding assay: UV-ligand exchange with beta2m ELISA (peptide exchange yield)
Conditions: binding to HLA-A*02:01
How it was run: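 Peptide-MHC complexes formed by UV-ligand exchange, a UV-cleavable peptide being replaced by the candidate peptide. Exchange products diluted 100-fold, captured on streptavidin-coated plates for 1h at 37° C, then detected with 2 ug/ml HRP anti-β2m (1h, 37° C) and TMB, absorbance 450 nm; value is exchange yield.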

3 (SLASKLTTL; listed as Homo sapiens) [compound 3]
Peptide exchange (MHC class I binding score, peptide exchange yield): “++++” (≥75% = ++++)

512 (SLSEIVPCL; listed as Homo sapiens) [compound 512]
Peptide exchange (MHC class I binding score, peptide exchange yield): “+++” (≥50 = +++)

537 (TLAPGEVLRSV; listed as Homo sapiens) [compound 537]
Peptide exchange (MHC class I binding score, peptide exchange yield): “+++” (≥50 = +++)

380 (TLIEDEIATI; listed as Homo sapiens) [compound 380]
Peptide exchange (MHC class I binding score, peptide exchange yield): “++” (≥20% = ++)

247 (VLLPNDLLEKV; listed as Homo sapiens) [compound 247]
Peptide exchange (MHC class I binding score, peptide exchange yield): “+++” (≥50 = +++)

285 (QLLHVGVTV; listed as Homo sapiens) [compound 285]
Peptide exchange (MHC class I binding score, peptide exchange yield): “+++” (≥50 = +++)

318 (GLINTGVLSV; listed as Homo sapiens) [compound 318]
Peptide exchange (MHC class I binding score, peptide exchange yield): “++” (≥20% = ++)

382 (ALQNYIKEA; listed as Homo sapiens) [compound 382]
Peptide exchange (MHC class I binding score, peptide exchange yield): “++” (≥20% = ++)

394 (LLAVIGGLVYL; listed as Homo sapiens) [compound 394]
Peptide exchange (MHC class I binding score, peptide exchange yield): “+++” (≥50 = +++)

399 (YLFEPLYHV; listed as Homo sapiens) [compound 399]
Peptide exchange (MHC class I binding score, peptide exchange yield): “+++” (≥50 = +++)

244 (SLFGGTEITI; listed as Homo sapiens) [compound 244]
Peptide exchange (MHC class I binding score, peptide exchange yield): “+++” (≥50 = +++)

561 (YLQLTQSEL; listed as Homo sapiens) [compound 561]
Peptide exchange (MHC class I binding score, peptide exchange yield): “+++” (≥50 = +++)

600 (ALAAPDIVPAL; listed as Homo sapiens) [compound 600]
Peptide exchange (MHC class I binding score, peptide exchange yield): “+++” (≥50 = +++)

181 (LLWAGTAFQV; listed as Homo sapiens) [compound 181]
Peptide exchange (MHC class I binding score, peptide exchange yield): “+++” (≥50 = +++)

208 (KISPVTFSV; listed as Homo sapiens) [compound 208]
Peptide exchange (MHC class I binding score, peptide exchange yield): “+++” (≥50 = +++)

549 (AMLENASDIKL; listed as Homo sapiens) [compound 549]
Peptide exchange (MHC class I binding score, peptide exchange yield): “+++” (≥50 = +++)

122 (FLLAEDDIYL; listed as Homo sapiens) [compound 122]
Peptide exchange (MHC class I binding score, peptide exchange yield): “+++” (≥50 = +++)

594 (IMLKGDNITL; listed as Homo sapiens) [compound 594]
Peptide exchange (MHC class I binding score, peptide exchange yield): “+++” (≥50 = +++)

375 (SLTETIEGV; listed as Homo sapiens) [compound 375]
Peptide exchange (MHC class I binding score, peptide exchange yield): “++” (≥20% = ++)

143 (LLLDITPEI; listed as Homo sapiens) [compound 143]
Peptide exchange (MHC class I binding score, peptide exchange yield): “++++” (≥75% = ++++)

520 (LAVHPSGVAL; listed as Homo sapiens) [compound 520]
Peptide exchange (MHC class I binding score, peptide exchange yield): “+” (≥10% = +)

472 (KLLEVSDDPQV; listed as Homo sapiens) [compound 472]
Peptide exchange (MHC class I binding score, peptide exchange yield): “+++” (≥50 = +++)

15 (VLLTFKIFL; listed as Homo sapiens) [compound 15]
Peptide exchange (MHC class I binding score, peptide exchange yield): “++” (≥20% = ++)

191 (LLQEGQALEYV; listed as Homo sapiens) [compound 191]
Peptide exchange (MHC class I binding score, peptide exchange yield): “++” (≥20% = ++)

348 (ILLDVKTRL; listed as Homo sapiens) [compound 348]
Peptide exchange (MHC class I binding score, peptide exchange yield): “++++” (≥75% = ++++)

609 (ALWKQLLEL; listed as Homo sapiens) [compound 609]
Peptide exchange (MHC class I binding score, peptide exchange yield): “+++” (≥50 = +++)

4 (GIMEHITKI; listed as Homo sapiens) [compound 4]
Peptide exchange (MHC class I binding score, peptide exchange yield): “++++” (≥75% = ++++)

95 (SVIPQIQKV; listed as Homo sapiens) [compound 95]
Peptide exchange (MHC class I binding score, peptide exchange yield): “+++” (≥50 = +++)

194 (ALPLFVITV; listed as Homo sapiens) [compound 194]
Peptide exchange (MHC class I binding score, peptide exchange yield): “+++” (≥50 = +++)

19 (FMVDNEAIYDI; listed as Homo sapiens) [compound 19]
Peptide exchange (MHC class I binding score, peptide exchange yield): “++++” (≥75% = ++++)

80 (FLYDNLVESL; listed as Homo sapiens) [compound 80]
Peptide exchange (MHC class I binding score, peptide exchange yield): “++” (≥20% = ++)

11 (KIFEMLEGV; listed as Homo sapiens) [compound 11]
Peptide exchange (MHC class I binding score, peptide exchange yield): “+++” (≥50 = +++)

256 (FLPPEHTIVYI; listed as Homo sapiens) [compound 256]
Peptide exchange (MHC class I binding score, peptide exchange yield): “+++” (≥50 = +++)

39 (SVAPNLPAV; listed as Homo sapiens) [compound 39]
Peptide exchange (MHC class I binding score, peptide exchange yield): “+++” (≥50 = +++)

623 (YLVEDIQHI; listed as Homo sapiens) [compound 623]
Peptide exchange (MHC class I binding score, peptide exchange yield): “+++” (≥50 = +++)

73 (NIFDLQIYV; listed as Homo sapiens) [compound 73]
Peptide exchange (MHC class I binding score, peptide exchange yield): “+++” (≥50 = +++)

84 (VTFGEKLLGV; listed as Homo sapiens) [compound 84]
Peptide exchange (MHC class I binding score, peptide exchange yield): “++” (≥20% = ++)

370 (SLLQDLVSV; listed as Homo sapiens) [compound 370]
Peptide exchange (MHC class I binding score, peptide exchange yield): “+++” (≥50 = +++)

356 (KLLGKLPEL; listed as Homo sapiens) [compound 356]
Peptide exchange (MHC class I binding score, peptide exchange yield): “+++” (≥50 = +++)

509 (FLFDTKPLIV; listed as Homo sapiens) [compound 509]
Peptide exchange (MHC class I binding score, peptide exchange yield): “+++” (≥50 = +++)

148 (ALNPEIVSV; listed as Homo sapiens) [compound 148]
Peptide exchange (MHC class I binding score, peptide exchange yield): “++” (≥20% = ++)

186 (TLFFQQNAL; listed as Homo sapiens) [compound 186]
Peptide exchange (MHC class I binding score, peptide exchange yield): “++” (≥20% = ++)

543 (GLLPTPITQQASL; listed as Homo sapiens) [compound 543]
Peptide exchange (MHC class I binding score, peptide exchange yield): “+++” (≥50 = +++)

518 (KLNAEVACV; listed as Homo sapiens) [compound 518]
Peptide exchange (MHC class I binding score, peptide exchange yield): “+++” (≥50 = +++)

496 (FLVEKQPPQV; listed as Homo sapiens) [compound 496]
Peptide exchange (MHC class I binding score, peptide exchange yield): “+++” (≥50 = +++)

389 (LLADVTHLL; listed as Homo sapiens) [compound 389]
Peptide exchange (MHC class I binding score, peptide exchange yield): “++” (≥20% = ++)
